Measurements reported in the supplement of paper PMC10724198.
± gives the standard deviation of the averaged measurements.

Experiments:
Saccharomyces cerevisiae [1] = experiment: protein stability index of tFT-peptide fusion (C-terminal peptide) (PSI (0-1 scale)); higher = more stable (slower turnover); details: genetic background: wild type; temperature: 30 C
Saccharomyces cerevisiae [2] = experiment: as above
Experimental: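 MPS profiling in S. cerevisiae of the tFT-X12 degron library: putative degron peptides plus stable controls, 12 aa, fused to the C-terminus of a sfGFP-mCherry timer. Cells are FACS-sorted into 8 mCherry/sfGFP bins and deep-sequenced. PSI runs from 0 (unstable) to 1 (stable). Backgrounds are wild type, das1Δ and doa10Δ at 30 °C, and wild type, das1Δ, cdc34-1 and cdc53-1 at 37 °C; 2-3 technical replicates each.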

[3] = genetic background: cdc34-1, temperature: 37 C
[4] = genetic background: cdc53-1, temperature: 37 C
[5] = genetic background: das1 deletion, temperature: 30 C
[6] = genetic background: das1 deletion, temperature: 37 C
[7] = genetic background: doa10 deletion, temperature: 30 C
[8] = genetic background: wild type, temperature: 30 C
[9] = genetic background: wild type, temperature: 37 C
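Also: PSI is a weighted mean of sequencing reads over stability bins, variants kept only with over 10 reads, mCherry proximal and sfGFP distal, peptide attached via GGGS linker.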

Sequence	protein stability index (Saccharomyces cerevisiae [1])	protein stability index (Saccharomyces cerevisiae [2]; [3])	protein stability index (Saccharomyces cerevisiae [2]; [4])	protein stability index (Saccharomyces cerevisiae [2]; [5])	protein stability index (Saccharomyces cerevisiae [2]; [6])	protein stability index (Saccharomyces cerevisiae [2]; [7])	protein stability index (Saccharomyces cerevisiae [2]; [8])	protein stability index (Saccharomyces cerevisiae [2]; [9])
FFFFSMFSFFIP	0.477 ± 0.054	0.503 ± 0.056	0.576 ± 0.0068	0.485 ± 0.017	0.564 ± 0.013	0.438 ± 0.013	0.466 ± 0.031	0.531 ± 0.0034
AGLTLLWPLCLL	0.3669 ± 0.0023	0.28 ± 0.0058	0.261 ± 0.0053	0.277 ± 0.022	0.394 ± 0.013	0.591 ± 0.01	0.265 ± 0.034	0.353 ± 0.013
VFFGLYLVTFTS	0.409 ± 0.042	0.219 ± 0.036	0.302 ± 0.045	0.222 ± 0.026	0.379 ± 0.013	0.196 ± 0.015	0.202 ± 0.025	0.3575 ± 0.0028
LLLVPLLAFSAS	0.521 ± 0.035	0.56 ± 0.054	0.63 ± 0.029	0.473 ± 0.034	0.6084 ± 0.0031	0.462 ± 0.027	0.46 ± 0.019	0.598 ± 0.015
GLFLYCCLVSLL	0.283 ± 0.011	0.192 ± 0.031	0.321 ± 0.0044	0.25 ± 0.025	0.413 ± 0.018	0.191 ± 0.00083	0.193 ± 0.019	0.33 ± 0.0091
LRFMLLSFLVIL	0.234 ± 0.083	0.251 ± 0.021	0.207 ± 0.015	0.349 ± 0.034	0.429 ± 0.019	0.2402 ± 0.0023	0.176 ± 0.022	0.266 ± 0.01
VEIKSKRMLVVI	0.45639 ± 0.00022	0.5115 ± 0.0011	0.538 ± 0.039	0.426 ± 0.028	0.578 ± 0.0069	0.287 ± 0.013	0.322 ± 0.04	0.4749 ± 0.0012
FFRPWRLVGCLV	0.331 ± 0.065	0.263 ± 0.0038	0.312 ± 0.011	0.265 ± 0.024	0.3692 ± 0.0036	0.189 ± 0.017	0.215 ± 0.018	0.266 ± 0.02
FFSFTVLVSYGF	0.352 ± 0.017	0.18 ± 0.011	0.256 ± 0.015	0.192 ± 0.025	0.34 ± 0.0067	0.186 ± 0.0095	0.187 ± 0.023	0.284 ± 0.0081
GWLVGLGLVFFT	0.514 ± 0.03	0.586 ± 0.018	0.664 ± 0.01	0.513 ± 0.033	0.661 ± 0.014	0.488 ± 0.02	0.499 ± 0.031	0.618 ± 0.011
